In US10746644B2, “Vitro method and apparatus for analysing the behaviour of substances in simulated physiological environment” (Hoffmann-La Roche Inc., priority 2014, dated 2020):

Test: Effect of dialysis membrane MWCO on diffusion of BSA and IgG from VH-compartment to FT-compartment
Type: in vitro ADME, porcine
Conditions: DM-1 50 kDa MWCO compared with DM-1 100 kDa MWCO; DM-2 100 kDa; HA gel 0.6% w/v
Procedure: Diffusion of bovine serum albumin (BSA) and Immunoglobulin G (IgG) in the flow direction from VH-compartment to FT-compartment was investigated by varying MWCO of the dialysis membrane. The experiment was performed similarly as described in example 1 with minor modifications. Two different MWCO dialysis membranes were used as DM-1, with MWCO 50 kDa and 100 kDa, whereas the MWCO of DM-2 was kept constant at 100 kDa. VH-compartment was filled with 3.5 mL of sterile porcine VH and GM-compartment was filled with about 3 mL of sterile HA gel (0.6% w/v). FT-compartment was filled with sterile PBS.

Substance: FITC-BSA: FITC-labelled bovine serum albumin (66 kDa), globular macromolecule
- diffusion into FT compartment: restrained the diffusion of both IgG and BSA significantly
